Experimental data from paper PMC5772342, “Metal-dependent allosteric activation and inhibition on the same molecular scaffold: the copper sensor CopY from Streptococcus pneumoniae† †Electronic supplementary information (ESI) available. See DO”.

Assays:
CopY C101A [1] = molecular target: T1, CopY C101A (Streptococcus pneumoniae D39, UniProt A0A0H2ZLC1 1-131, C101A); test: EMSA; Zn1 CopY dimer; 5 mM MgCl2; 200 mM NaCl; FA: 10 mM HEPES pH 7.0, 0.23 M NaCl, 2 mM TCEP, 40 uM ZnSO4 or 2 mM EDTA, 25 C; EMSA: 10 nM DNA, 25 mM HEPES pH 7.0, 200 mM NaCl, 5 mM MgCl2, 50 ug/mL BSA (apo: 5 mM EDTA), 25 C; conditions: protein: recombinant; tags: N-terminal His6-TEV, cleaved; three non-native N-terminal residues remain (printed GAM); chain copies: 2; label: 5' fluorescein on strand 1; blunt
CopY C101A [2] = molecular target: T1, CopY C101A; test: fluorescence anisotropy; Zn1 CopY dimer; 40 uM ZnSO4; 0.23 M NaCl; FA: 10 mM HEPES pH 7.0, 0.23 M NaCl, 2 mM TCEP, 40 uM ZnSO4 or 2 mM EDTA, 25 C; EMSA: 10 nM DNA, 25 mM HEPES pH 7.0, 200 mM NaCl, 5 mM MgCl2, 50 ug/mL BSA (apo: 5 mM EDTA), 25 C; conditions: protein: recombinant; tags: N-terminal His6-TEV, cleaved; three non-native N-terminal residues remain (printed GAM); chain copies: 2; label: 5' fluorescein on strand 1; blunt

B1: 32-bp cop operator (single cop box) (dsDNA)
DNA 1: GTCTATAATTGACAAATGTAGATTTTAAGAGC
DNA 2: GCTCTTAAAATCTACATTTGTCAATTATAGAC
- Ka (CopY C101A [1]): 2e+07 M⁻¹
- Ka (CopY C101A [2]): 1e+07 M⁻¹
